Measurements from patent US20200071380A1, “COMBINATION THERAPIES COMPRISING SIRP ALPHA-BASED CHIMERIC PROTEINS” (Shattuck Labs, Inc., priority 2018, published 2020).

Columns and labels:
[1] = biological target: recombinant mouse CD47 and CD40 (Mus musculus, UniProt P27512+Q61735); experiment: Dual functional ELISA of the murine surrogate; assay type: binding
murine CD40 = biological target: T1, murine CD40 (Mus musculus, UniProt P27512); experiment: Murine CD40/NFκB-luciferase reporter in CHOK1 cells; assay type: cell-based
T1 construct: expressed in transfected cells; host or cells: CHO-K1
T1 sequence (P27512 20-289): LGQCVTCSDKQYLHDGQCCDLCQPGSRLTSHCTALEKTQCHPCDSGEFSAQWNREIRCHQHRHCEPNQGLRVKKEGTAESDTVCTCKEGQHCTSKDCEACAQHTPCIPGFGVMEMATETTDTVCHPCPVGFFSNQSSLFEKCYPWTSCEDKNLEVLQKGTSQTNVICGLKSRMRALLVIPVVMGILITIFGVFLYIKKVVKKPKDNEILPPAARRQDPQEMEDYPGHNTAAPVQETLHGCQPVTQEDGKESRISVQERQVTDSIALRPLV
Experimental: Cells were cultured with a dose titration of recombinant human CD40L-his or SIRPα-Fc-CD40L, and luminescence was read on a luminometer after 6 hours. The left histograms are (−) Control, middle histograms are hCD40L-His and the right histograms are SIRPα-Fc-CD40L. […] CD8-depleted PBMC from 33-50 distinct human donors were cultured with media only, the neoantigen positive control KLH, the clinical stage non-activating control Exenatide, or 0.3, 3, 30, or 300 nM of SIRPα-Fc-CD40L. At 10 μg/ml on the X-axis, the samples are, top to bottom: hCD40L-Fc, SIRPα-Fc-CD40L, ahCD40 (HB14) ad (−) Control. […] The left histograms are (−) control, second from left are FC-mCD40L, second from right are anti-mCD40 (FGK4.5) and right are mSIRPα-Fc-CD40L.
The murine version of the CD40/NFκB-luciferase system was established in CHOK1 cells.

A20 lymphoma = experiment: Murine phagocytosis assay, BMDMs with A20 lymphoma cells; assay type: cell-based
WEHI3 leukemia cells = experiment: Murine phagocytosis assay, BMDMs with WEHI3 leukemia cells; assay type: cell-based
splenic dendritic cells = experiment: In vivo splenic dendritic cell activation; set-up: species or system mice; conditions: single IV dose; 6 or 24 hours, especially the 24 hour time point
Experimental: For each panel, the samples are (left to right): untreated, sheep RBCs, αCD47 (MIAP301), αSIRPα (P84), mSIRPα-Fc-CD40L, mSIRPα-Fc-CD40L (24 Hrs), and αCD47 (MIAP301) (24 hrs). FIG. 9B is a quantitation of in vivo dendritic cell activation corresponding to FIG. 9A. Shown is the absolute percent of CD4+ and CD8+ dendritic cells; also gated on CD11c and DC1R2. In FIG. 9B, for each panel, the samples are (left to right): untreated, sheep RBCs, αCD47 (MIAP301), αSIRPα (P84), SIRPα-Fc-CD40L (150 μg), SIRPα-Fc-CD40L (300 μg), SIRPα-Fc-CD40L (300 μg) (24 Hrs), and αCD47 (MIAP301) (24 hrs).
An in vivo assay to examine SIRPα/CD47 function in mice was describe in Yi et al., “Splenic Dendritic Cells Survey Red Blood Cells for Missing Self-CD47 to Trigger Adaptive Immune Responses. Immunity. 2015;43(4):764-75) (the contents of which is incorporated by reference in its entirety). This assay detects the activation status of splenic dendritic cells in response to SIRPa/CD47 inhibitors or to infused sheep red blood cells (RBC).
After 6 or 24 hours, mice were euthanized and their spleens excised, dissociated, and assessed by flow cytometry for populations of activated CD4+ dendritic cells (DCs) (FIG. 9A, left panel) or CD8+dendritic cells (FIG. 9A, right panel); both populations of dendritic cells were also positive for MHC II (I-Ab), CD11c, and DC1R2.

CT26 tumors = experiment: Syngeneic CT26 colon tumor model versus CD40/CD47 antibodies (Example 11); assay type: in vivo, mice
Experimental: FIG. 20C: a similar CT26 experiment was initiated as described in FIG. 20A above, however mice were pre-treated on days −1, 1, and 10 with IP injections of 100 μg of either or both CD4/CD8 depleting antibodies. Mice were inoculated with CT26 tumors on day 0 and treated at a later starting date than FIG. 20A with mSIRPα-Fc-CD40L ARC on days 7, 9, and 11. […] In FIG. 20D and FIG. 20E, BALB/C mice were inoculated with WEHI3 tumors (FIG. 20D) or A20 tumors (FIG. 20E) subcutaneously on the rear flank, and then treated via IP injection with anti-CD20 or mSIRPα-Fc-CD40L on days 7, 9, and 11 (WEHI3) or days 10, 12, and 14 (A20); when tumors were established and reached approximately 57-60 mm^3. A cohort of mice were pre-treated with an interferon alpha receptor 1 (IFNAR1) blocking antibody ([…] by IP injection) on days -1, 1, and 10 (WEHI3) or on days −1, 1, and 13 (A20). FIG. 20F to FIG. 20H are graphs showing blockade of CD4, CD8, and IFNAR1. Peripheral blood analysis by flow cytometry of CD4 (FIG. 20F), CD8 (FIG. 20G), and IFNAR1 (FIG. 20H) depletion following depleting antibody treatment corresponding to FIG. 20C to FIG. 20E. Samples were normalized to untreated animals.
Implanted CT26 tumors were allowed to grow to ˜30 mm^3 before treatment was initiated with a fixed regimen of two doses of either a CD40 agonist antibody (clone FGK4.5), a CD47 blocking antibody (clone MIAP301), a combination of the two antibodies, or the murine SIRPα-Fc-CD40L chimeric protein. […] Based on this observation, these experiments were repeated in the setting of antibody-mediated depletion of both CD4+ and CD8+ cells (FIG. 20C).
CD4 and CD8 depletion was verified in the peripheral blood at multiple time points during the experiment (see, FIG. 20F and FIG. 20G).

[2] = system: peripheral blood cell populations; experiment: Peripheral blood cell populations in treated mice; assay type: in vivo
Experimental: FIG. 22B is a graph showing RBCs and test agents that were incubated at 37° C. for 24 hours and then the media was assessed at OD490 for changes in absorbance due to hemoglobin being released from lysing RBCs. […] FIG. […] Cell populations were assessed by flow cytometry and included CD20+ B cells, CD110+, CD4+/CD11c+, and CD8+/CD11c+ dendritic cells.
Receptor occupancy was evaluated on circulating CD40+ lymphocytes.

B1: mSIRPα-Fc-CD40L: Murine version of SIRPα-Fc-CD40L, made from murine proteins to assess activity in vivo (protein)
chain: KELKVTQPEKSVSVAAGDSTVLNCTLTSLLPVGPIRWYRGVGPSRLLIYSFAGEYVPRIRNVSDTTKRNNMDFSIRISNVTPADAGIYYCVKFQKGSSEPDTEIQSGGGTEVYVLAKPSPPEVSGPADRGIPDQKVNFTCKSHGFSPRNITLKWFKDGQELHPLETTVNPSGKNVSYNISSTVRVVLNSMDVNSKVICEVAHITLDRSPLRGIANLSNFIRVSPTVKVTQQSPTSMNQVNLTCRAERFYPEDLQLIWLENGNVSRNDTPKNLTKNTDGTYNYTSLFLVNSSAHREDVVFTCQVKHDQQPAITRNHTVLGFAHSSDQGSMQTFPDNNATHNWNVPRDCGCKPCICTVPEVSSVFIFPPKPKDVLTITLTPKVTCVVVDISKDDPEVQFSWFVDDVEVHTAQTQPREEQFNSTFRSVSELPIMHQDWLNGKEFKCRVNSAAFPAPIEKTISKTKGRPKAPQVYTIPPPKEQMAKDKVSLTCMITDFFPEDITVEWQWNGQPAENYKNTQPIMNTNGSYFVYSKLNVQKSNWEAGNTFTCSVLHEGLHNHHTEKSLSHSPGKHRRLDKVEEEVNLHEDFVFIKKLKRCNKGEGSLSLLNCEEMRRQFEDLVKDITLNKEEKKENSFEMQRGDEDPQIAAHVVSEANSNAASVLQWAKKGYYTMKSNLVMLENGKQLTVKREGLYYVYTQVTFCSNREPSSQRPFIVGLWLKPSSGSERILLKAANTHSSSQLCEQQSVHLGGVFELQAGASVFVNVTEASQVIHRVGFSSFGLLKL
- simultaneous binding to recombinant mouse CD47 and CD40 [1]: simultaneous binding
- activation of the NFκB pathway, murine CD40 reporter (murine CD40): consistently stimulated potent activation of the NFκB pathway
- phagocytic activity (A20 lymphoma): induced strong phagocytic activity
- phagocytosis index compared with CD47 blocking antibody (A20 lymphoma): higher phagocytosis index than the CD47 blocking antibody
- phagocytic activity (WEHI3 leukemia cells): induced strong phagocytic activity
- phagocytosis index compared with CD47 blocking antibody (WEHI3 leukemia cells): higher phagocytosis index than the CD47 blocking antibody
- splenic CD4+ and CD8α+ DCs expressing high levels of MHCII, CD80, and CD86 (splenic dendritic cells): greatly upregulated splenic CD4+ and CD8α+ DCs
- rejection of a secondary tumor challenge among mice that rejected the primary tumor (CT26 tumors; no additional treatment): 60%
- mice rejecting primary tumors (CT26 tumors; two doses, treatment started at ˜30 mm^3): 62%
- tumor growth / survival (CT26 tumors; two doses, treatment started at ˜30 mm^3, versus vehicle controls): significant prolongation in tumor growth and survival
- overall CD45+ peripheral lymphocytes ([2]; 24 hours following a single IP injection (300 μg)): decrease in overall CD45+ peripheral lymphocytes
- CD8+ dendritic cells in peripheral blood ([2]; mice): significant increase in CD8+ dendritic cells
- CD40+ B cells in peripheral blood ([2]; mice): peripheral decrease in CD40+ B cells
